In assay [1] the target is T1, CD96 (UniProt P40200).
T1 sequence (looked up): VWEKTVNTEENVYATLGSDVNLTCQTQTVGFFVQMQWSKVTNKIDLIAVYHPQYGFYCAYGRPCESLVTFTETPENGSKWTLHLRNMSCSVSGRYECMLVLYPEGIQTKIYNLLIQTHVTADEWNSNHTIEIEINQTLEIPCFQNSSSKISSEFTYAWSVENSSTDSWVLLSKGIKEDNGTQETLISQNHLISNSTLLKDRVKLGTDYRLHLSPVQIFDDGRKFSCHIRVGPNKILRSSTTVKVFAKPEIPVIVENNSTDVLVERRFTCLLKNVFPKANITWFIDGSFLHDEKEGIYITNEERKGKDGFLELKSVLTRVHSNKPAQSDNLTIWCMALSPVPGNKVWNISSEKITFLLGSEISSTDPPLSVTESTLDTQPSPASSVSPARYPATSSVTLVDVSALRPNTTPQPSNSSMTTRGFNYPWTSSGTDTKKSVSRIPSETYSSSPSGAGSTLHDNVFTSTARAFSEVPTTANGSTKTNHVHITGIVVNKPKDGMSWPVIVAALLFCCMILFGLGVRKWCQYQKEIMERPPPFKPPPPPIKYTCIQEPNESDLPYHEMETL
Put plainly: flow cytometry on CD96-expressing cells. (In general: A flow cytometer gives signals particle by particle.)

For a further assay, the target named is CD112R (human) (UniProt Q6DKI7). Put plainly: flow cytometry on CD112R-expressing cells.
Sequence of CD112R (human) (Q6DKI7 whole entry): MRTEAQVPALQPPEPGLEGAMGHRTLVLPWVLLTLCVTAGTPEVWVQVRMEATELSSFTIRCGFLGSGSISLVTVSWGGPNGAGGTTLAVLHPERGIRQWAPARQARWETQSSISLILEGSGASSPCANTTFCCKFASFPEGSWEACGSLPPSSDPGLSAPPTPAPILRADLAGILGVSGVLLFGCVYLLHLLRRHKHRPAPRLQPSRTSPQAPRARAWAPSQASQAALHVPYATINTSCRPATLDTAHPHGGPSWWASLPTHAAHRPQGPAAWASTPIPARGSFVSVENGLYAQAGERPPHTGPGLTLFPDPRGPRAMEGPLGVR
Assay [2] concerns the target T2, CD96 (expressed on cells) (UniProt P40200).
T2 sequence (looked up): T1 sequence (looked up)
Kind of assay: flow cytometry on cells expressing the target, 20 nM.

Assay [3] has as its target CD112R (full length, expressed on transfected cells) (human) (UniProt Q6DKI7). The description is as above.
In assay [4] the target is PD-1 (Homo sapiens (Human)) (UniProt Q15116). Put plainly: flow cytometry, cells expressing PD-1.
Sequence of PD-1 (Homo sapiens (Human)) (Q15116 21-288 limits assumed, form in doubt): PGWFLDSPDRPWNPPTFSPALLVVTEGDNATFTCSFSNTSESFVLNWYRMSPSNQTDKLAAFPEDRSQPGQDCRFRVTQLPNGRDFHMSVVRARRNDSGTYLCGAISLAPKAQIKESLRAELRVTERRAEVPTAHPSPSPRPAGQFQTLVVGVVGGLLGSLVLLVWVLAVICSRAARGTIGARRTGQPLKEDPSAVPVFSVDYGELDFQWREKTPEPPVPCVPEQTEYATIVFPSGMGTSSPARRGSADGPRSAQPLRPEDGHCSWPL
Assay [5] concerns the target CD80 (Homo sapiens (Human)) (UniProt P33681). Kind of assay: flow cytometry, cells expressing CD80.
For assay [6], the target named is PD-1 (Homo sapiens (Human)) (UniProt Q15116). Kind of assay: flow cytometry, cells expressing PD-1; vs WT PD-L1 (IgV + IgC) Fc.
Assay [7] concerns the target human ICOS as used for the 'ICOS OD' read-out of Table 14 (human). Put plainly: binding read as OD; format not described.
Assay [8] has as its target human CD28, full-length, expressed on transfected Expi293 cells (human) (UniProt P10747). Kind of assay: flow cytometry on CD28-expressing Expi293 cells.
In assay [9] the target is T1, CD96. Kind of assay: flow cytometry, cells.
For assay [10], the target named is T3, CD226 (human) (UniProt Q15762).
T3 sequence: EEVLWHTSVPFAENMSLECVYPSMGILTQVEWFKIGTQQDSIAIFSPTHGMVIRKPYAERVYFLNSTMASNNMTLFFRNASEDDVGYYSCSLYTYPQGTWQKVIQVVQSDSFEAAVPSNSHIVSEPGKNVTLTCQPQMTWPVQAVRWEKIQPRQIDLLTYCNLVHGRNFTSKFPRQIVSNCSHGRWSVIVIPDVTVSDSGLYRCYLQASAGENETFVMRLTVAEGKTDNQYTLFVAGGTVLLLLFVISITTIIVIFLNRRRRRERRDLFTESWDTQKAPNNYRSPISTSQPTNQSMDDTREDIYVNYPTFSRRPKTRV
Put plainly: flow cytometry, transfected cells.

The target in assay [11] is T4, TIGIT (human) (UniProt Q495A1).
T4 sequence: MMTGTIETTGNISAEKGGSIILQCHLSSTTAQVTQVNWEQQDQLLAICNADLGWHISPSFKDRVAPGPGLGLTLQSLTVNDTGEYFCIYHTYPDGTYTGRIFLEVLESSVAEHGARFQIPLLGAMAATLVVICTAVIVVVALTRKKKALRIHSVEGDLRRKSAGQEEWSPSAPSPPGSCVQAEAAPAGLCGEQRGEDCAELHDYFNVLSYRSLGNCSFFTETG
Kind of assay: flow cytometry, transfected cells.

The target in assay [12] is human B7-H6 (human) (UniProt Q68D85). Kind of assay: flow cytometry; MFI vs m14.
Sequence of human B7-H6 (human) (Q68D85 25-454): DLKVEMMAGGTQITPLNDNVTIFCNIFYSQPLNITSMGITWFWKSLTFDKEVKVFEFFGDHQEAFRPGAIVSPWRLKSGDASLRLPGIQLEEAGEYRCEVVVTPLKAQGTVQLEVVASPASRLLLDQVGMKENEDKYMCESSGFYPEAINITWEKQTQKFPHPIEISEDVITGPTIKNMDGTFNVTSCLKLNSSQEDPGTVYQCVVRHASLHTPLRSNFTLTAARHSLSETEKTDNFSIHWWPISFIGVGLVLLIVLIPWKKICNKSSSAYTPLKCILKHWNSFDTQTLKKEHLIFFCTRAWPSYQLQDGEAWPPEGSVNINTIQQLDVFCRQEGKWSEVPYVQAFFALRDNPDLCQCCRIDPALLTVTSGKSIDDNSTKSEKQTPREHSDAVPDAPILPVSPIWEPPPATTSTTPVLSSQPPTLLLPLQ
Assay [13] has the same target. Put plainly: flow cytometry, transfected cells.
Another assay has as its target CD28 (human) (UniProt P10747). Put plainly: flow cytometry, transfected cells.
For assay [14], the target named is T3, CD226 (human). Kind of assay: flow cytometry on CD226-expressing cells.
The target in assay [15] is human B7-H6, full-length, expressed on transfected Expi293 cells (human) (UniProt Q68D85). Kind of assay: flow cytometry on B7-H6-expressing Expi293 cells.
Sequence of human B7-H6, full-length, expressed on transfected Expi293 cells (human) (Q68D85 25-454): as above
The target in assay [16] is PD-1 (Homo sapiens (Human)) (UniProt Q15116). Kind of assay: flow cytometry, Jurkat/PD-1 cells.
For assay [17] the target is unchanged. Put plainly: flow cytometry, Jurkat/PD-1 cells; vs wildtype PD-L2 IgV-Fc.
Another assay deals with PD-1-Fc. Put plainly: Fortebio (BLI), PD-1-Fc. (BLI is a label-free optical method that tracks binding on a fibre tip over time.)
Assay [18] concerns the target T4, TIGIT (human). Put plainly: flow cytometry on TIGIT-expressing cells.
In another assay the target is PD-L1 (human) (UniProt Q9NZQ7). Kind of assay: flow cytometry, transfected cells.
Sequence of PD-L1 (human) (Q9NZQ7 19-290 limits assumed): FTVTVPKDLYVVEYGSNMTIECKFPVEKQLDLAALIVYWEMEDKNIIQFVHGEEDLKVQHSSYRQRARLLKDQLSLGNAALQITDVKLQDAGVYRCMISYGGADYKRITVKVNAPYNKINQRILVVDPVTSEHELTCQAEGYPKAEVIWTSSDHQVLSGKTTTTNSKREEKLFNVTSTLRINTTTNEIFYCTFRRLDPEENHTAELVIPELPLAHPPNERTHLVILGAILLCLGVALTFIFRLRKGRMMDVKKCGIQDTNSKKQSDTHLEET
In the next assay the target is CTLA4 (human) (UniProt P16410). Put plainly: flow cytometry, transfected cells.
Sequence of CTLA4 (human) (P16410 36-223 limits assumed): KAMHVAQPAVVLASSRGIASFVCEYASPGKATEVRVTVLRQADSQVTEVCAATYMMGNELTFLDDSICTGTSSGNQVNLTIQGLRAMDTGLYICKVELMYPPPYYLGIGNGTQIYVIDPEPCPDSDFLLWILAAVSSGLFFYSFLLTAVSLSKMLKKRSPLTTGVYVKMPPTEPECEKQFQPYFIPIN
For assay [19], the target named is human CD112R, full length, expressed on transfected Expi293 cells (human) (UniProt Q6DKI7). Put plainly: flow cytometry, Expi293 cells transfected with full-length human CD112R.
Sequence of human CD112R, full length, expressed on transfected Expi293 cells (human) (Q6DKI7 whole entry): as the sequence (Q6DKI7 whole entry) above

Sequence of Domain 1: CD80 WT / Domain 2: CD80 WT / Fc (Fc fusion) (chain): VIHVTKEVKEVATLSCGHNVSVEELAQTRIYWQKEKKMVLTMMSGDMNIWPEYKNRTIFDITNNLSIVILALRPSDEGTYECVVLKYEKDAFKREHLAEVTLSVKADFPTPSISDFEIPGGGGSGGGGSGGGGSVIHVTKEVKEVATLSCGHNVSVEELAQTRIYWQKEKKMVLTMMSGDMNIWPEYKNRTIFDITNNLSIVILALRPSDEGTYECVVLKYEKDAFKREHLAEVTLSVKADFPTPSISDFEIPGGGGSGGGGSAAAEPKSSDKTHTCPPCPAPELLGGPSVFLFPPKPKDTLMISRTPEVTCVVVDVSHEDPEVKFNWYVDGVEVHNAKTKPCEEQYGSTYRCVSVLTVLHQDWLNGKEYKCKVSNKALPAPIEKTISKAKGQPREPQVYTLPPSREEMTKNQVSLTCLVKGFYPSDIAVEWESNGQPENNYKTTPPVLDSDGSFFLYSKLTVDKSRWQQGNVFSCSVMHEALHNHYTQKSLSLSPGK
Sequence of CD155 Wild type IgV-Fc (P15151 24-139 limits assumed): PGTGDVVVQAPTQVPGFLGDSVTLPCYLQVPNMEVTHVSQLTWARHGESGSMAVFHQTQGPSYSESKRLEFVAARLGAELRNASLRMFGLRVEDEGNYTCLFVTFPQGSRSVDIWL
Sequence of CD112R (full length, expressed on transfected cells) (human) (Q6DKI7 whole entry): as the sequence (Q6DKI7 whole entry) above
Sequence of WT CD112 IgV Fc fusion (Q92692 32-156 limits assumed): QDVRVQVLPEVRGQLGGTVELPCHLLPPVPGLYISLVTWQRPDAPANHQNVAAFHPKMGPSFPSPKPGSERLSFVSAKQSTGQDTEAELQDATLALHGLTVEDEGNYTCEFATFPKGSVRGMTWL
Sequence of Wildtype CD112-IgV Fc (Q92692 32-156 limits assumed): as above
Sequence of CD80 (Homo sapiens (Human)) (P33681 35-288 limits assumed, form in doubt): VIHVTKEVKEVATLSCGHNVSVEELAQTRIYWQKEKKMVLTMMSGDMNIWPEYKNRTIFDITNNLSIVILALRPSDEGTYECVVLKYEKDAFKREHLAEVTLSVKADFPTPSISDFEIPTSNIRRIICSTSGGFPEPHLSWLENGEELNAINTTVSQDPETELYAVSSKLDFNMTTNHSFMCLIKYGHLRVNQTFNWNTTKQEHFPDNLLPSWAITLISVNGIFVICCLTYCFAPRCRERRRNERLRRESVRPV
Sequence of human ICOS as used for the 'ICOS OD' read-out of Table 14 (human) (Q9Y6W8 whole entry): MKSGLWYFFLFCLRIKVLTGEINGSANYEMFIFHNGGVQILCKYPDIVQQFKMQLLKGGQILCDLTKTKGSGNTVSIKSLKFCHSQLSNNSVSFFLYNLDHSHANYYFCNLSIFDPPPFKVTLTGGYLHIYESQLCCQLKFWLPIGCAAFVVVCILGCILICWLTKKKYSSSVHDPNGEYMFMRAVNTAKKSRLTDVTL

On to “Wildtype CD112-IgV Fc (from UniProt Q92692 32-156) (Fc fusion)”, for which the MFI at 100 nM with CD96 [1] turned out to be 8540 MFI; with CD112R (human), 4840 MFI.
Turning to “WT CD112 IgV Fc fusion (from UniProt Q92692 32-156)”, the MFI at 20 nM in assay [2] came out at 2500; in assay [3], 1660.
Turning to “variant PD-L1 ECD-Fc I36T, I46V, D55G, M97L, K106E, K144E, T185A, R195G (Fc fusion)”, the results for the MFI at 20 nM in [4] and in assay [5] were 69 and 190, respectively. The Fold Change Compared to WT PD-L1 in [6] was 0 fold.
As to ICOSL variant N52S/Y152H ECD-Fc fusion, in assay [7], the ICOS OD was found to be 0.85 OD and the ICOS OD parental ratio (ratio to WT ICOSL ECD-Fc) came to 0.99. Besides, in assay [8], the MFI was 68 MFI and the MFI parental ratio (ratio to WT ICOSL ECD-Fc) came out at 3.78.
For “CD155 P18T, F91S, R94H IgV-Fc (from UniProt P15151 24-139) (Fc fusion)”, the values for the MFI in the assay with CD96 [9], in the assay with CD226 (human) [10] and with TIGIT (human) [11] were 2510, 3590 and 2940, respectively.
For “Domain 1: CD80 WT / Domain 2: Nkp30 WT / Fc (Fc fusion)”, in the assay with human B7-H6 (human) [12], the WT parental MFI ratio was found to be 1. The results for the MFI with human B7-H6 (human) [13] and with CD28 (human) were 110000 and 13700, respectively.
Turning to “CD112 variant Y33H, S118T IgV-Fc (from UniProt Q92692 32-156) (Fc fusion)”, the MFI at 100 nM is 17700 MFI in the assay with CD226 (human) [14] and 5000 MFI with CD96 [1].
Regarding “CD155 P18S, F91S IgV-Fc (from UniProt P15151 24-139) (Fc fusion)”, the MFI with CD96 [9] came out at 147000; in the assay with CD226 (human) [10] it was 409000.
As to “stacked Fc fusion, Domain 1: NKp30 WT / Domain 2: ICOSL WT”, the MFI in [15] was found to be 64500 MFI; in [8], 6340 MFI.
Turning to “variant PD-L1 ECD-Fc I36T, G52R, M97L, V112A, K144E, V175A, P198T (Fc fusion)”, the MFI at 20 nM in [4] is 81; in assay [5], 149. The Fold Change Compared to WT PD-L1 in [6] turned out to be 0 fold.
With “CD112 IgV R12W, Y33H, N47K, Q79R, S118Y Fc fusion (from UniProt Q92692 32-156)”, the figures for the MFI at 20 nM in assay [2] and in [3] were 2640 and 1120, respectively.
“CD155 Wild type IgV-Fc (from UniProt P15151 24-139) (Fc fusion)”: the MFI in the assay with CD96 [9] turned out to be 3080; in the assay with CD226 (human) [10], 3720; with TIGIT (human) [11] it was 2720.
Take “CD112 variant Y33H, A46T, Q79R, N106I, S118F IgV-Fc (from UniProt Q92692 32-156) (Fc fusion)”: the MFI at 100 nM with CD226 (human) [14] was determined as 15600 MFI.
“variant PD-L2 IgV-Fc H15Q, R76G, I85F (SEQ ID NO 1505) (Fc fusion)” returned an MFI at 50 nM in [16] of 1890. In addition, in assay [17], the Fold increase over wildtype PD-L2 IgV-Fc is 0.19 fold. In the assay with PD-1-Fc, this substance showed a Fortebio binding to PD-1-Fc Response Units (Response Units) of -0.006.
“CD112 variant G82S, S118Y IgV-Fc (from UniProt Q92692 32-156) (Fc fusion)”: in the assay with TIGIT (human) [18], the MFI 100 nM was determined as 4270 MFI.
In the case of “Domain 1: CD80 WT / Domain 2: CD80 WT / Fc (Fc fusion)”, the MFI with PD-L1 (human) came out at 6300; with CTLA4 (human) it was 4700; with CD28 (human) it was 1630.
“CD112 variant S118Y IgV-Fc fusion (from UniProt Q92692 32-156)”: the MFI in [19] worked out at 6540 MFI.
In [16], “variant PD-L2 IgV-Fc I13V, H15Q, T47A, Q82R, V89D (SEQ ID NO 1545) (Fc fusion)” had an MFI at 50 nM of 61000. Further, the Fold increase over wildtype PD-L2 IgV-Fc in assay [17] amounted to 6.2 fold. This substance gave a Fortebio binding to PD-1-Fc Response Units (Response Units) with PD-1-Fc of 1.45.
As to “CD155 P18L, L79V, F91S IgV-Fc (from UniProt P15151 24-139) (Fc fusion)”, the MFI with CD96 [9] was determined as 3280; with CD226 (human) [10], 5140; in the assay with TIGIT (human) [11], 4070.
With ICOSL variant N52S/S54P ECD-Fc fusion, the ICOS OD in assay [7] was 1.5 OD.

The record behind these values is patent US20200040059A1.
